Results published in patent US20040071656A1, “Modulation of heat-shock-protein-based immunotherapies” (priority 2001, published 2004).

Key:
human CD40 = target: T1, human CD40 (Homo sapiens, UniProt P25942); experiment: P38 kinase assay in HEK293T-CD40 cells; type: cell-based; conditions: for phosphorylated p38 in HEK293T-CD40 cells: 100 nM, 20 min at 37° C., ADP and peptide C
T1 construct: CD40 full-length cDNA was cloned by PCR; expressed in transfected cells
Procedure: P38 Kinase Assay. Twenty-four h prior to P38 kinase assays HEK293T-CD40 and HEK293T-MCAT cells were seeded into a 24-well plate coated with collagen and incubated with 100 nM CD40L (Alexis), HSP70, N70-domain, C70-domain, or DnaK for 20 min at 37° C. DnaK, Hsp70, N70 and C70 were preincubated with either 2 mM ADP and 30 μM peptide C or 40 μM AMPPNP (Sigma). Upon stimulation cells were washed twice with ice-cold PBS, and lysed in SDS-sample buffer. Equal amounts of protein were analyzed by immunoblotting with antibodies directed against phosphorylated P38 (Promega), and with a monoclonal anti-tubulin antibody (J. Wehland, Braunschweig, Germany).
Binding of Hsp70-peptide complex to CD40 results in intracellular signaling and peptide uptake. Binding of CD40 ligand to CD40 induces signal transduction via phosphorylation of p38, a component of the signal cascade between activated CD40 and NF-kappaB, which eventually results in the release of TNF-alpha and subsequent secretion of interferon-gamma (Pullen et al., 1999). Binding of the C-terminal domain of DnaK to CD40 was reported to have a similar effect (Wang et al., 2001, idem). We therefore investigated whether binding of human Hsp70-peptide complex to CD40 also stimulates this signaling pathway. These experiments were carried out in HEK293T cells stably transfected with human CD40 cDNA. After incubation with either Hsp70-peptide complex, recombinant Hsp70 domains, or DnaK, in the presence of ADP or the non-hydrolysable ATP analogue AMPPNP, cells were lysed, and lysates analyzed by immunoblotting with an antibody directed against active (i.e., phosphorylated) p38.
Details for FIG. 6. Binding of Hsp70 complex to CD40-expressing HEK293T cells induces signaling via p38 and causes peptide uptake. […] Thereafter cells were washed, solubilized in SDS-sample buffer, and analyzed by immunoblotting with antibodies directed against phosphorylated (active) p38. […] Thereafter cells were washed, incubated for 15 min at 37° C., and processed for fluorescence microscopy. […]

[1] = target: T2, exoplasmic domain of human CD40 (GST-CD40) (Homo sapiens, UniProt P25942); experiment: GST-CD40 pull-down of endogenous heat shock proteins from Hela cell lysate; type: binding; conditions: 80 or 400 pmol GST-CD40, immunoblot
T2 construct: The cDNA for the exoplasmic domain of CD40 (amino acids 20-212); made in house; host or cells: E. coli, pGEX-2T
Procedure: Binding assays with GST-CD40. For binding of endogenous Hsp70 and Hsc70 from Hela cell lysate, Hela cells were lysed as described above and centrifuged at 100,000 g at 4° C. for 1 h. 20 μl bed volume of Glutathione Sepharose 4 Fast Flow (Amersham Pharmacia) per sample were preincubated with 80 pmol or 400 pmol of GST or GST-CD40 fusion protein in 50 μl binding buffer. Unbound protein was removed by washing three times with PBS. The beads were treated with 1% BSA/PBS to avoid non-specific binding, and than incubated with 150 μl of Hela cell lysate in the presence of 2 mM DTT for 20 min at 16° C. […] 10 μl of the eluates was subjected to SDS-PAGE and analyzed by immunoblotting using an anti-Hsc/Hsp70 antibody and an anti-Hsp90: antibody (SPA822 and SPA835, Stressgen). […]
Details for FIG. 3. […] Thereafter samples were affinity purified on glutathione-Sepharose as outlined in Experimental Procedures, subjected to SDS-PAGE and analyzed by immunoblotting with antibodies directed against Hsc70 and Hsp70 (upper lanes), and against Hsp90 (lower lanes). […] After affinity purification samples were analyzed by immunoblotting as described in A, using antibodies directed against the His6-tag. […] Protein bound to Hsp70 was analyzed by affinity purification on Ni-NTA-agarose and immunoblotting with antibodies directed against CD40.

T1 sequence (P25942 21-277): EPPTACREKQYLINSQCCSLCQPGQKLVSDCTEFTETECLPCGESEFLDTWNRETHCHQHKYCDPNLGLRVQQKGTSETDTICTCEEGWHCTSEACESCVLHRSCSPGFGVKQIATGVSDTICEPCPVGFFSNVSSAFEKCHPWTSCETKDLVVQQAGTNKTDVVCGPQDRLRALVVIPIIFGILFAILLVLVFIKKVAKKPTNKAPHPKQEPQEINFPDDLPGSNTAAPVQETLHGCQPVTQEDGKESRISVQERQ
T2 sequence (P25942 20-212): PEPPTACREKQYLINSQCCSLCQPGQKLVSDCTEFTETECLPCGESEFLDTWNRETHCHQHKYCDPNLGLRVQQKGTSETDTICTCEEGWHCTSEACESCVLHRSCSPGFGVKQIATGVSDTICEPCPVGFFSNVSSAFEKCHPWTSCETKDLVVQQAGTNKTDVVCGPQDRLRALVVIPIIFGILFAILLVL

Substance	phosphorylated p38 in HEK293T-CD40 cells (human CD40)	binding to GST-CD40 from Hela-cell lysates [1]	activation of p38 by Hsp70, nucleotide dependence (human CD40; ADP versus AMPPNP, compared with same molar concentration of CD40 ligand)
N70: Recombinant N-terminal ATPase domain of human Hsp70, residues 5-381 (SEQ ID NO: 1)	caused an increase in phosphorylated p38 to an extent comparable to that observed with DnaK	–	–
Hsp70: Recombinant human heat shock protein 70, expressed and purified as His-tagged protein	caused an increase in phosphorylated p38 to an extent comparable to that observed with DnaK	bound to GST-CD40 in a concentration dependent manner	significant, and depended on the presence of ADP
